Laboratory results published in US20100261778.

Target: p53 wild-type (UniProt P04637)
Experiment: cell_activity
Details: dual luciferase activation in H1299 (p53 null)

p53 wild-type, sequence (P04637 whole entry): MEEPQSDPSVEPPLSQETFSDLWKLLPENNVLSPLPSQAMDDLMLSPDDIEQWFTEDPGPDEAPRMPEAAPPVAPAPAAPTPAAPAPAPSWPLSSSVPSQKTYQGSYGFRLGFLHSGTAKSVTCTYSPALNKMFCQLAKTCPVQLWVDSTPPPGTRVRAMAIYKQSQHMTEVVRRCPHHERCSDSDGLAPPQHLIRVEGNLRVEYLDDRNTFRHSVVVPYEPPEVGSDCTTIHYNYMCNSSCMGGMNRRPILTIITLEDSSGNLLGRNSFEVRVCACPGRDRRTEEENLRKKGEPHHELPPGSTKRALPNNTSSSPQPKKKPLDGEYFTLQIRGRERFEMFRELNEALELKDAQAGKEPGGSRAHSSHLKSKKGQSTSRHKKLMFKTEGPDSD

**Q.** How did the activity turn out when “killin promoter 140 bp fragment with p53 site (pGL3-Killin)” was run?
**A.** 70 fold
